Consider one molecule from publication PMC10921760 (ACS sensors, 2023).

In this experiment the target is Recombinant Human Integrin α4β1 Protein, CF (human, UniProt P13612 35-977; P05556 21-728). Put plainly: surface enhanced Raman spectroscopy.
Recombinant Human Integrin α4β1 Protein, CF, sequence (P13612 35-977, chain 1 of 2): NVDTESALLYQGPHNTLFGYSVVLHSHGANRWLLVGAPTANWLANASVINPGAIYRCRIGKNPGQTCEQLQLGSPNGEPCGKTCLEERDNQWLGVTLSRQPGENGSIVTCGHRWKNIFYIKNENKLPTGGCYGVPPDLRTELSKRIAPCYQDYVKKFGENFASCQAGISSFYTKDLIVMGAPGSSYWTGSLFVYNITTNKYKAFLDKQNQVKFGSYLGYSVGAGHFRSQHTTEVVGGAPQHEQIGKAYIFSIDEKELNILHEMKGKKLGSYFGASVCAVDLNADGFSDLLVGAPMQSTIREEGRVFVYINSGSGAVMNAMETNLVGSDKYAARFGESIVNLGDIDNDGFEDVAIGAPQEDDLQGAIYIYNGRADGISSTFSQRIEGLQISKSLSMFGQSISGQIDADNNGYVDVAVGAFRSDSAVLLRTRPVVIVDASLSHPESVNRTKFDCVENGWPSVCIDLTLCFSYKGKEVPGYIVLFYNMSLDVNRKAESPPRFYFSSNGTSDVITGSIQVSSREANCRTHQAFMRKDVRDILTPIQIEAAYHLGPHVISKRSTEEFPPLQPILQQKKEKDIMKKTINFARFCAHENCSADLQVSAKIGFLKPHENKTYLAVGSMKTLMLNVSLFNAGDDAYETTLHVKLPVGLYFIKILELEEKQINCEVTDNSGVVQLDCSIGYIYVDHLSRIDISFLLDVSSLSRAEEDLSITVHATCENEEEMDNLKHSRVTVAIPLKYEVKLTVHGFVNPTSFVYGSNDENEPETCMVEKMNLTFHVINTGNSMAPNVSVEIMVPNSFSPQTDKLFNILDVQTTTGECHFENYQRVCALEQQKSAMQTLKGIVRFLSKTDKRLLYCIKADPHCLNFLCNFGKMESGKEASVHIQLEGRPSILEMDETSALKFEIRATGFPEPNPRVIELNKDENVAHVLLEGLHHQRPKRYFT
Recombinant Human Integrin α4β1 Protein, CF, sequence (P05556 21-728, chain 2 of 2): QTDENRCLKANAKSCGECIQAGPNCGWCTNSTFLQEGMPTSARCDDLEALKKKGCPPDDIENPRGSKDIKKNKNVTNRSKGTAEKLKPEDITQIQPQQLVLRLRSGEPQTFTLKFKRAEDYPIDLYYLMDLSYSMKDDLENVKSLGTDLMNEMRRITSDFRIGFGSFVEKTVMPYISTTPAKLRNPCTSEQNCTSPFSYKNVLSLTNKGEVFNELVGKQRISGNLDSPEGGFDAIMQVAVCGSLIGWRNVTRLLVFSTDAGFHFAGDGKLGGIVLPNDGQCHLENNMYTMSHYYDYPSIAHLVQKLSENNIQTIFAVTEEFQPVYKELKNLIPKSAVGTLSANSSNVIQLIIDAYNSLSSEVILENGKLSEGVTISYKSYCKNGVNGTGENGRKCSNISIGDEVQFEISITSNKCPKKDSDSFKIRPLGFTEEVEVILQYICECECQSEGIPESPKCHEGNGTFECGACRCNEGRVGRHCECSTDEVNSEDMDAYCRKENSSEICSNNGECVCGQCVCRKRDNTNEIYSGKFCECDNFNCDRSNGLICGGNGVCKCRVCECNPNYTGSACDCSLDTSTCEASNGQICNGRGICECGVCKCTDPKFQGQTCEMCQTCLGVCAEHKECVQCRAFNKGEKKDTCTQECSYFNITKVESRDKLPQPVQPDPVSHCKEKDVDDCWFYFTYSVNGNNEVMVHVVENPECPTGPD

B1: Cys-Asp-Pro-Gly-Tyr-Ile-Gly-Ser-Arg (CDPGYIGSR) (peptide)
peptide: CDPGYIGSR
modifications: not fully specified; functionalized onto gold coated magnetic nanoparticles (thiol chemistry of the Cys)
In the case of B1, the binding result is listed as “binds”.
